Measurements published in patent US20080027145A1, “Therapeutic Molecules and Methods for Generating and/or Selecting Same” (priority 2004, published 2008).

Key:
GST Mcl-1 = GST Mcl-1 (Mus musculus, UniProt P97287); assay: GST pull-down with recombinant BH3-only proteins; format: binding
Bcl-w ΔC29 = target: T1, Bcl-w ΔC29 (Homo sapiens, UniProt Q92843, A128E/C29S); assay: Bcl-w ΔC29
T1 construct: human Bcl-w (Acc. no. NP_004041; residues 1-164; C29S A128E); made in house
Protocol: (§1) Table printed on a drawing sheet, FIGURE 2A
(§2) The patent's description of the figure: FIG. 2 is a graphical representation showing pro-apoptotic BH3-only and pro-survival Bcl-2-like proteins have distinctive interactions. (A) Using competitive binding assays, the IC50 (nM) for the indicated interactions were determined. The results shown are from representative experiments; the variation observed in multiple experiments was less than two-fold (using different chips or protein batches). (B) Relative binding affinities of interactions (tabulated in A) were inversely plotted. The BH3 binding profiles of pro-survival proteins are shown. In (C), the sequences of human Bcl-2 (residues 93-202), human Bcl-xL (86-195), human Bcl-w (42-151), mouse Mcl-1 (190-300) and mouse A1 (33-148) that form their BH3 binding grooves (α-helices 2 to 8; Hinds et al., EMBO J 22:1497-1507, 2003) were compared and presented as a phylogenetic tree. Color reproductions are available from the patentees on request.
(§3) First copying reader's note: The table itself prints no unit; IC50 (nM) is printed only on the axis of panel B of the same figure, which plots the same values.

A1 ΔC20 = target: T2, A1 ΔC20 (Mus musculus, UniProt Q07440); assay: A1 ΔC20
T2 construct: mouse A1 (Acc. no. NP_033872; residues 1-152); GST (N, cleaved yes); made in house
T2 sequence (Q07440 1-152, stated change not applied): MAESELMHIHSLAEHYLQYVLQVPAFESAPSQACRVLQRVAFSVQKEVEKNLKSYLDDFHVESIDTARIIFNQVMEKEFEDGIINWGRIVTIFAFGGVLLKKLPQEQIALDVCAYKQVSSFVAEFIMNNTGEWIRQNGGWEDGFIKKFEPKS
Protocol: as §1
Head of the field: A1 ΔC20
as §2, §3
Where the first naming reader finds the target: head: A1 ΔC20

FLAG-tagged Bcl-xL = target: T3, FLAG-tagged Bcl-xL (Homo sapiens, UniProt Q07817); assay: Co-immunoprecipitation in transfected 293T cells; format: binding; settings: tagged full-length proteins
T3 construct: expressed in transfected cells; host or cells: HEK293T
T3 sequence (Q07817 whole entry): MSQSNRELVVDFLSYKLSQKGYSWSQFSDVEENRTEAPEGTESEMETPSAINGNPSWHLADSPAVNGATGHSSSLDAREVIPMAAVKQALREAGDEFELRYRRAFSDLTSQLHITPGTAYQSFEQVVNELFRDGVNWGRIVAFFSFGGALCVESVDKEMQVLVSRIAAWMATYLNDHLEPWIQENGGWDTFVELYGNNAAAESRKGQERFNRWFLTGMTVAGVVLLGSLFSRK
From the text: (§4) Equivalent ^35S-labeled lysates harvested from 293T cells were immunoprecipitated with antibodies to the HA, FLAG (FL) or control (C) tags.
(§5) The maintenance, transfection and metabolic labeling of the human embryonic kidney (HEK) 293T cells with ^35S-methionine/cysteine (NEN) as well as co-immunoprecipitation have been described (Huang et al., Supra; Moriishi et al., Proc Natl Acad Sci USA 96:9683-9688, 1999; O'Conner et al., Supra). Briefly, equivalent TCA-precipitable lysates were immunoprecipiated using the mouse monoclonal antibodies to HA (HA.11; CRP), FLAG (M2; Sigma) and control Glu-Glu (CRP) tags. The proteins were resolved by SDS:PAGE, transferred onto nitrocellulose membranes and detected by fluorography (Amplify; Amersham Biosciences).
(§6) To verify the in vitro findings, interactions of selected pairs of the full-length N-terminally tagged proteins were investigated in mammalian cells by co-immunoprecipitation. […] The cells were metabolically labeled with ^35S-methionine/cysteine to permit semi-quantitative assessment of any interaction between co-associating radiolabeled proteins.
(§7) To verify the in vitro findings, selected pairs of the full-length N-terminally tagged proteins associated in mammalian cells were investigated by co-immunoprecipitation. […] The cells were metabolically labeled with ^35S-methionine/cysteine to permit semi-quantitative assessment of any interaction between the labeled proteins or interaction was gauged by the more sensitive western blotting.

FLAG-tagged Mcl-1 = target: T4, FLAG-tagged Mcl-1 (Mus musculus, UniProt P97287); assay: Co-immunoprecipitation in transfected 293T cells; format: binding; settings: tagged full-length proteins
T4 construct: expressed in transfected cells; host or cells: HEK293T
T4 sequence (P97287 whole entry): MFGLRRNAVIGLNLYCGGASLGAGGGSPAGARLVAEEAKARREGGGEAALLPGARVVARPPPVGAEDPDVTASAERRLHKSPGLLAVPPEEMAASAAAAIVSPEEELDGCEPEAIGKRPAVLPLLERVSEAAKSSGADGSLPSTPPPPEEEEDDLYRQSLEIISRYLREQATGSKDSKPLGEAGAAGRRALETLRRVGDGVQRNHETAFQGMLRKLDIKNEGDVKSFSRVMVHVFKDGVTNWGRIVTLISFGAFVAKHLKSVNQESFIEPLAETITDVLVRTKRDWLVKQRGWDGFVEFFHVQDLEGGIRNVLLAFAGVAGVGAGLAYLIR
From the text: as §4, §5, §6, §7

FLAG-tagged Bcl-2 = target: T5, FLAG-tagged Bcl-2 (Homo sapiens, UniProt P10415); assay: Co-immunoprecipitation in transfected 293T cells; format: binding; settings: tagged full-length proteins
T5 construct: expressed in transfected cells; host or cells: HEK293T
T5 sequence (P10415 whole entry): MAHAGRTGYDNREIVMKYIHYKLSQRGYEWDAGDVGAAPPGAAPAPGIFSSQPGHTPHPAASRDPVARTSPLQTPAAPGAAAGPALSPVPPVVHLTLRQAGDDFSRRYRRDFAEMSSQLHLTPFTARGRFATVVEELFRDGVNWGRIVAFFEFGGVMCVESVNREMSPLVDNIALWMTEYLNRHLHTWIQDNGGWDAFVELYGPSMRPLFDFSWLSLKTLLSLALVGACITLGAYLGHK
From the text: as §4, §5, §6, §7

Mcl-1 ΔN151 ΔC23 = target: T6, Mcl-1 ΔN151 ΔC23 (Mus musculus, UniProt P97287); assay: Mcl-1 ΔN151 ΔC23
T6 construct: mouse Mcl-1 (Acc. no. NP_031588; residues 152-308); GST (N, cleaved yes); made in house
T6 sequence (P97287 152-308, stated change not applied): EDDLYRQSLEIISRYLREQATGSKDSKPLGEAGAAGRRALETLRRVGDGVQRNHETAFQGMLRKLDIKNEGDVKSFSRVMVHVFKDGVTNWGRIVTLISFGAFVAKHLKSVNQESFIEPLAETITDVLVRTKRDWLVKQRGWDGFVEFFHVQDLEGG
Protocol: as §1
Head of the field: Mcl-1 ΔN151 ΔC23
as §2, §3
Where the first naming reader finds the target: head: Mcl-1 ΔN151 ΔC23

Bcl-2 ΔC22 = target: T7, Bcl-2 ΔC22 (Homo sapiens, UniProt P10415); assay: Bcl-2 ΔC22
T7 construct: Human Bcl-2 (Acc. no. NP_000624; residues 1-217); made in house
T7 sequence (P10415 1-217, stated change not applied): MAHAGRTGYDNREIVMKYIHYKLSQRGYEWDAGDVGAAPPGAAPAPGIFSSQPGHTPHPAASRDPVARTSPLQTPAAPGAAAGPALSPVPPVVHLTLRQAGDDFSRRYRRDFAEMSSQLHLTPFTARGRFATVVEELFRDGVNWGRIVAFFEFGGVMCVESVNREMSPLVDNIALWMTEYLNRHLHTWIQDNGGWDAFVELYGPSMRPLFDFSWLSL
Protocol: as §1
Head of the field: Bcl-2 ΔC22
as §2, with “In (C), the sequences of human Bcl-2 (residues 93-202), human Bcl-xL (86-195), human Bcl-w (42-151), mouse Mcl-1 (190-300) and mouse A1 (33-148) that form their BH3 binding grooves (α-helices 2 to 8; Hinds et al., EMBO J 22:1497-1507, 2003) were compared and presented as a phylogenetic tree.” left out
as §3
Where the first naming reader finds the target: head: Bcl-2 ΔC22

Bcl-xL ΔC24 = target: T8, Bcl-xL ΔC24 (Homo sapiens, UniProt Q07817); assay: Bcl-xL ΔC24
T8 construct: Human Bcl-xL (Acc. no. NP_612815; residues 1-209); GST (N, cleaved yes); made in house
T8 sequence (Q07817 1-209, stated change not applied): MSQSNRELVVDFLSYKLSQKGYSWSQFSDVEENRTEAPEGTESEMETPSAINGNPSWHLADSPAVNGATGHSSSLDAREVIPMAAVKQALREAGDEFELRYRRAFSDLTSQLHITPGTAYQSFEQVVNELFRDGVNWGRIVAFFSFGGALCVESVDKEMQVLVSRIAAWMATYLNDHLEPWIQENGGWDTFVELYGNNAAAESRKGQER
Protocol: as §1
Head of the field: Bcl-xL ΔC24
as §2, §3
Where the first naming reader finds the target: head: Bcl-xL ΔC24

[1] = test system: mouse embryonic fibroblasts (MEFs); assay: Killing of MEFs after retroviral expression, viability 24 hours after infection; format: cell-based; settings: for killing of MEFs: retroviral expression, 24 hours after infection; for killing of MEFs on co-expression with the NoxaBH3: co-expressed with GFP-Bims NoxaBH3, 24 hours
Protocol: FIG. 7 is a graphical representation showing that BH3-only proteins that bind selective targets have weak killing activity. (A) The affinities of BH3-only peptides for pro-survival proteins (tabulated in FIG. 3A) were inversely plotted to facilitate comparison of the patterns of BH3 binding. […] Immortalized 3T9 MEFs were infected with retroviruses expressing only GFP (control), or one of the BH3-only proteins and GFP. The viability of the infected (GFP^+ve) cells was determined by PI exclusion 24 hours after infection. The histograms represent means±1SD of at least 3 experiments. […] The filter was probed with a rat monoclonal anti-FLAG antibody. *Degradation product of Mcl-1. […] Viability of MEFs infected with retroviruses encoding the indicated proteins (GFP^+ve) was analyzed 24 hours after infection. The histograms represent means±1SD of at least 3 experiments. (E) Long-term survival of MEFs infected with BH3 expressing retroviruses. One hundred retrovirally-infected cells were plated and the absolute number of GFP^+ve colonies formed after 6 days scored. […] The data represent the average number of GFP^+ve colonies formed±1SD from at least 3 experiments. To assess the biological relevance of the selective binding, retroviral delivery was used to compare the ability of different BH3-only proteins to kill wild-type mouse embryonic fibroblasts (MEFs). To monitor expression of the introduced gene, a vector (pMIG) in which its expression is coupled via an internal ribosomal entry site (IRES) to that of green fluorescent protein (GFP) was used (Van Parijs et al., Immunity 11:281-288, 1999). The cells were efficiently infected (>90%) and the introduced BH3-only proteins were comparably expressed. Viability of the infected (GFP^+ve) cells was scored 24 hours after infection (FIGS. 7A, 7B) and in long-term colony assays (FIG. 7E). […] Thus, the neutralization of Mcl-1 by Noxa should be complemented by co-expression of a BadBH3 to neutralize Bcl-2 and Bcl-xL in MEFs (FIG. 8A).

[2] = test system: mouse embryonic fibroblasts (MEFs); assay: Long-term colony assay of retrovirally infected MEFs; format: cell-based; settings: colonies after 6 days
Protocol: FIG. 7 is a graphical representation showing that BH3-only proteins that bind selective targets have weak killing activity. (A) The affinities of BH3-only peptides for pro-survival proteins (tabulated in FIG. 3A) were inversely plotted to facilitate comparison of the patterns of BH3 binding. […] Immortalized 3T9 MEFs were infected with retroviruses expressing only GFP (control), or one of the BH3-only proteins and GFP. The viability of the infected (GFP^+ve) cells was determined by PI exclusion 24 hours after infection. The histograms represent means±1SD of at least 3 experiments. […] The filter was probed with a rat monoclonal anti-FLAG antibody. *Degradation product of Mcl-1. […] Viability of MEFs infected with retroviruses encoding the indicated proteins (GFP^+ve) was analyzed 24 hours after infection. The histograms represent means±1SD of at least 3 experiments. (E) Long-term survival of MEFs infected with BH3 expressing retroviruses. One hundred retrovirally-infected cells were plated and the absolute number of GFP^+ve colonies formed after 6 days scored. […] The data represent the average number of GFP^+ve colonies formed±1SD from at least 3 experiments. […] Viability of the infected (GFP^+ve) cells was scored 24 hours after infection (FIGS. 7A, 7B) and in long-term colony assays (FIG. 7E).

GST Mcl-1, sequence (P97287 whole entry): as the sequence (P97287 whole entry) above
T1 sequence (Q92843 1-164 C29S/A128E): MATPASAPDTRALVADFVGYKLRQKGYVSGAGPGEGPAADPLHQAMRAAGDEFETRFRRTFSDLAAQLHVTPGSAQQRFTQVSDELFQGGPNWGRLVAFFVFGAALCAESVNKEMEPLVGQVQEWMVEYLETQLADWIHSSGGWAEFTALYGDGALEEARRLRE

Molecule	binding of GST Mcl-1 (GST Mcl-1)	IC50 (Bcl-w ΔC29) [nM]	IC50 (A1 ΔC20) [nM]	interaction with Bcl-xL by co-immunoprecipitation (FLAG-tagged Bcl-xL)	interaction with Mcl-1 by co-immunoprecipitation (FLAG-tagged Mcl-1)	interaction with Bcl-2 by co-immunoprecipitation (FLAG-tagged Bcl-2)	IC50 (Mcl-1 ΔN151 ΔC23) [nM]	IC50 (Bcl-2 ΔC22) [nM]	IC50 (Bcl-xL ΔC24) [nM]	killing of MEFs [1]	long-term survival, GFP+ve colonies [2]	killing of MEFs on co-expression with the NoxaBH3 [1]	killing of MEFs on co-expression with the BadBH3 ([1]; co-expressed with GFP-Bims BadBH3, 24 hours)
Bad: full-length mouse BH3-only protein Bad expressed in cells, recombinant in GST pull-down (protein, UniProt Q61337 1-204, looked up, full-length, full-length mouse BH3-only protein Bad expressed in cells, recombinant in GST pull-down) MGTPKQPSLAPAHALGLRKSDPGIRSLGSDAGGRRWRPAAQSMFQIPEFEPSEQEDASATDRGLGPSLTEDQPGPYLAPGLLGSNIHQQGRAATNSHHGGAGAMETRSRHSSYPAGTEEDEGMEEELSPFRGRSRSAPPNLWAAQRYGRELRRMSDEFEGSFKGLPRPKSAGTATQMRQSAGWTRIIQSWWDRNLGKGGSTPSQ	not	30	15000	bound well	not appreciably	bound well	> 100000	16	5.3	much less potent killers			
Bmf: BH3-only protein Bmf, expressed from retrovirus in MEFs, recombinant in GST pull-down (protein, UniProt Q91ZE9 1-185, looked up) Bcl-2-modifying factor: MEPPQCVEELEDDVFQSEDGEPGTQPGGLLSADLFAQSQLDCPLSRLQLFPLTHCCGPGLRPISQEDKATQTLSPASPSQGVMLPCGVTEEPQRLFYGNAGYRLPLPASFPAGSPLGEQPPEGQFLQHRAEVQIARKLQCIADQFHRLHTQQHQQNRDRAWWQVFLFLQNLALNRQENREGVGPW	weakly		1800				1100			much less potent killers			
Bik: full-length human BH3-only protein Bik expressed in cells (protein, UniProt Q13323 1-160, looked up, full-length) MSEVRPLSRDILMETLLYEQLLEPPTMEVLGMTDSEEDLDPMEDFDSLECMEGSDALALRLACIGDEMDVSLRAPRLAQLSEVAMHSLGLAFIYDQTEDIRDVLRSFMDGFTTLKENIMRFWRSPNPGSWVSCEQVLLALLLLLALLLPLLSGGLHLLLK			58	to a greater extent than Bcl-2 or Mcl-1						much less potent killers	modest effects	potently enhanced	
Noxa: full-length BH3-only protein Noxa expressed in cells (mouse Noxa bearing two BH3s in co-immunoprecipitation) (protein, UniProt Q9JM54 1-103, looked up, full-length) MPGRKARRNAPVNPTRAELPPEFAAQLRKIGDKVYCTWSAPDITVVLAQMPGKSQKSRMRSPSPTRVPADLKDECAQLRRIGDKVNLRQKLLNLISKLFNLVT		> 100000	180	did not	interacted only with Mcl-1			> 100000	> 100000	much less potent killers	modest effects	did not augment	as much cell death as expression of Bims alone
